Measured values: US20230227548A1 (published 2023)
Numbering of substitutions follows the chain as printed. In names and notes the source's numbering stands.

B1: GC5B471 (antibody, V domains shown)
VH: EVQLVQSGAEVKKPGESLKISCKGSGYSFTSYYIGWVRQMPGKGLEWMGIIYPGASDTRYSPSFQGQVTISADKSISTAYLQWSSLKASDTAMYYCARVYSFGGRHKALFDYWGQGTLVTVSS
VL: EIVLTQSPATLSLSPGERATLSCRASQSVSSYLAWYQQKPGQAPRLLIYDASNRATGIPARFSGSGSGTDFTLTISSLEPEDFAVYYCQQRSNWPLTFGQGTKVEIK
notes: GC5B164 PTM variant, Hc GC5H278
B2: GC5B497 (antibody, V domains shown)
VH: B1 VH with Y33V, A55D
VL: B1 VL
notes: GC5B164 PTM variant, Hc GC5H252
B3: GC5B503 (antibody, V domains shown)
VH: B1 VH with Y33W, A55K
VL: B1 VL
notes: GC5B164 PTM variant, Hc GC5H246
B4: GC5B488 (antibody, V domains shown)
VH: B1 VH with Y33F, A55E
VL: B1 VL
notes: GC5B164 PTM variant, Hc GC5H261
B5: GC5B505 (antibody, V domains shown)
VH: B1 VH with Y33W, A55Y
VL: B1 VL
notes: GC5B164 PTM variant, Hc GC5H244
B6: GC5B484 (antibody, V domains shown)
VH: B1 VH with Y33G, A55K
VL: B1 VL
notes: GC5B164 PTM variant, Hc GC5H265
B7: GC5B482 (antibody, V domains shown)
VH: B1 VH with Y33V, A55K
VL: B1 VL
notes: GC5B164 PTM variant, Hc GC5H267
B8: GC5B477 (antibody, V domains shown)
VH: B1 VH with Y33V, A55S
VL: B1 VL
notes: GC5B164 PTM variant, Hc GC5H272
B9: GC5B501 (antibody, V domains shown)
VH: B1 VH with Y33W
VL: B1 VL
notes: GC5B164 PTM variant, Hc GC5H248
B10: GC5B498 (antibody, V domains shown)
VH: B1 VH with Y33F, A55D
VL: B1 VL
notes: GC5B164 PTM variant, Hc GC5H251
B11: GC5B481 (antibody, V domains shown)
VH: B1 VH with A55K
VL: B1 VL
notes: GC5B164 PTM variant, Hc GC5H268
B12: GC5B479 (antibody, V domains shown)
VH: B1 VH with Y33G, A55S
VL: B1 VL
notes: GC5B164 PTM variant, Hc GC5H270
B13: GC5B494 (antibody, V domains shown)
VH: B1 VH with Y33G, A55Y
VL: B1 VL
notes: GC5B164 PTM variant, Hc GC5H255
B14: GC5B492 (antibody, V domains shown)
VH: B1 VH with Y33V, A55Y
VL: B1 VL
notes: GC5B164 PTM variant, Hc GC5H257
B15: GC5B493 (antibody, V domains shown)
VH: B1 VH with Y33F, A55Y
VL: B1 VL
notes: GC5B164 PTM variant, Hc GC5H256
B16: GC5B502 (antibody, V domains shown)
VH: B1 VH with Y33W, A55S
VL: B1 VL
notes: GC5B164 PTM variant, Hc GC5H247
B17: GC5B485 (antibody, V domains shown)
VH: B1 VH with Y33A, A55K
VL: B1 VL
notes: GC5B164 PTM variant, Hc GC5H264
B18: GC5B490 (antibody, V domains shown)
VH: B1 VH with Y33A, A55E
VL: B1 VL
notes: GC5B164 PTM variant, Hc GC5H259
B19: GC5B487 (antibody, V domains shown)
VH: B1 VH with Y33V, A55E
VL: B1 VL
notes: GC5B164 PTM variant, Hc GC5H262
B20: GC5B495 (antibody, V domains shown)
VH: B1 VH with Y33A, A55Y
VL: B1 VL
notes: GC5B164 PTM variant, Hc GC5H254
B21: GC5B480 (antibody, V domains shown)
VH: B1 VH with Y33A, A55S
VL: B1 VL
notes: GC5B164 PTM variant, Hc GC5H269
B22: GC5B478 (antibody, V domains shown)
VH: B1 VH with Y33F, A55S
VL: B1 VL
notes: GC5B164 PTM variant, Hc GC5H271
B23: GC5B476 (antibody, V domains shown)
VH: B1 VH with A55S
VL: B1 VL
notes: GC5B164 PTM variant, Hc GC5H273
B24: GC5B483 (antibody, IgG4, V domains shown)
VH: B1 VH with Y33F, A55K
VL: B1 VL
notes: GC5B164 variant D55K, W33F; IgG4 S228P, L234A, L235A; also called GC5H266
B25: GC5B486 (antibody, V domains shown)
VH: B1 VH with A55E
VL: B1 VL
notes: GC5B164 PTM variant, Hc GC5H263
B26: GC5B491 (antibody, V domains shown)
VH: B1 VH with A55Y
VL: B1 VL
notes: GC5B164 PTM variant, Hc GC5H258
B27: GC5B474 (antibody, V domains shown)
VH: B1 VH with Y33G
VL: B1 VL
notes: GC5B164 PTM variant, Hc GC5H275
B28: GC5B472 (antibody, V domains shown)
VH: B1 VH with Y33V
VL: B1 VL
notes: GC5B164 PTM variant, Hc GC5H277
B29: GC5B473 (antibody, V domains shown)
VH: B1 VH with Y33F
VL: B1 VL
notes: GC5B164 PTM variant, Hc GC5H276
B30: GC5B475 (antibody, V domains shown)
VH: B1 VH with Y33A
VL: B1 VL
notes: GC5B164 PTM variant, Hc GC5H274
B31: GC5B496 (antibody, V domains shown)
VH: B1 VH with A55D
VL: B1 VL
notes: GC5B164 PTM variant, Hc GC5H253
B32: GC5B504 (antibody, V domains shown)
VH: B1 VH with Y33W, A55E
VL: B1 VL
notes: GC5B164 PTM variant, Hc GC5H245
B33: GCDB40 (bispecific antibody, V domains shown)
VH 1: EVQLVESGGGLVQPGGSLRLSCAASGFTFNTYAMNWVRQAPGKGLEWVARIRSKYNNYATYYAASVKGRFTISRDDSKNSLYLQMNSLKTEDTAVYYCARHGNFGNSYVSWFAYWGQGTLVTVSS
VL 1: QTVVTQEPSLTVSPGGTVTLTCRSSTGAVTTSNYANWVQQKPGQAPRGLIGGTNKRAPGTPARFSGSLLGGKAALTLSGVQPEDEAEYYCALWYSNLWVFGGGTKLTVL
VH 2: EVQLLESGGGLVQPGGSLRLSCAASGFTFSDYGMHWVRQAPGKGLEWVSAIKYSGGSTYYADSVKGRFTISRDNSKNTLYLQMNSLRAEDTAVYYCAKRAESGPGLDYWGQGTLVTVSS
VL 2: not shown
B34: GCDB44 (bispecific antibody, V domains shown)
VH 1: B33 VH 1
VL 1: B33 VL 1
VH 2: not shown
VL 2: B1 VL
B35: GCDB43 (bispecific antibody, V domains shown)
VH 1: B33 VH 1
VL 1: B33 VL 1
VH 2: not shown
VL 2: not shown
B36: GCDB41 (bispecific antibody, V domains shown)
VH 1: B33 VH 1
VL 1: B33 VL 1
VH 2: QVQLVQSGAEVKKPGSSVKVSCKASGGTFSSYGISWVRQAPGQGLEWMGGIIPIFGNINYAQKFQGRVTITADESTSTAYMELSSLRSEDTAVYYCARVSRRFKRFAYYFDYWGQGTLVTVSS
VL 2: not shown
B37: GCDB35 (bispecific antibody, V domains shown)
VH 1: B33 VH 1
VL 1: B33 VL 1
VH 2: B1 VH with Y33W, A55D
VL 2: B1 VL

molecular target: T1, human GPRC5D (human, UniProt Q9NZD1 1-345); assay: FACS, human GPRC5D cells
T1 construct: on transfected HEK293 or RBL cells, or endogenous on MM1R, H929, OPM2, LP-1, JIM3 and patient plasma cells; also called G-protein coupled receptor family C group 5 member D; hGPRC5D
T1 sequence (Q9NZD1 whole entry): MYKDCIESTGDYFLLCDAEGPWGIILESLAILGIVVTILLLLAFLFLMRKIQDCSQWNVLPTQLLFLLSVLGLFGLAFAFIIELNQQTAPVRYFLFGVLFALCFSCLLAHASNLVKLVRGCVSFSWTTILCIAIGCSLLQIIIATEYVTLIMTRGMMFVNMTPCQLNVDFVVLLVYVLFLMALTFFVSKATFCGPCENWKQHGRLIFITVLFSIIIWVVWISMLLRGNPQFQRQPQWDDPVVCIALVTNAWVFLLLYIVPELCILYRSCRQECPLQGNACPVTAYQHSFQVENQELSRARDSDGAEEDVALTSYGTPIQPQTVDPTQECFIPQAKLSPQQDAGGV

Row | binding result | Binder
1 | binds | B1
2 | binds | B2
3 | binds | B3
4 | binds | B4
5 | binds | B5
6 | binds | B6
7 | binds | B7
8 | binds | B8
9 | binds | B9
10 | binds | B10
11 | binds | B11
12 | binds | B12
13 | binds | B13
14 | binds | B14
15 | binds | B15
16 | binds | B16

Row | binding result | Binder
17 | binds | B17
18 | binds | B18
19 | binds | B19
20 | binds | B20
21 | binds | B21
22 | binds | B22
23 | binds | B23
24 | binds | B24
25 | binds | B25
26 | binds | B26
27 | binds | B27
28 | binds | B28
29 | binds | B29
30 | binds | B30
31 | binds | B31
32 | binds | B32

molecular target: T1, human GPRC5D; assay: cell-based or functional assay

Row | Binder | T-cell mediated cytotoxicity EC50, H929 (n = 5) | T-cell mediated cytotoxicity EC50, MM1R (n = 3)
33 | B33 | 1.2 nM | 0.52 nM
34 | B34 | 10.3 nM | 4.41 nM
35 | B35 | 0.36 nM | 0.21 nM
36 | B36 | – | 2.58 nM
37 | B37 | 1.39 nM | 0.74 nM
